Data on 1 molecule can be found in patent publication US6218168A, “Process for preparing O-acetylserine, L-cysteine and L-cysteine-related products” (Consortium fur elektrochemische Inudstrie GmbH, priority 1995, dated 2001).

Test [1] deals with JM15attλ::cysE strains. The test can be described thus: Cysteine production in 1 L fermenter, chromosomally encoded cysE alleles. The format is cell-based, E. coli. The note with it: single chromosomal copy. As to the method: For the purpose of being integrated into the chromosomal attachment site (attλ), the cysE alleles cysEIV, cysEX and cysEXI were cloned into the plasmid pRS551 (Simons et al., 1987, Gene 53: 85-96). For this, each cysE allele was amplified by PCR from the corresponding cysE plasmid. The oligonucleotides which were used, i.e. cysE-fwl and cysE-revl, are described in Example 1. The amplification was carried out as described in Example 3. The resulting fragments were cleaved with EcoRI/BamHI, purified through an agarose gel and ligated into vector pRS551 which had been cleaved with EcoRI and BamHI. This afforded the vector pRS551-based recombinant plasmids pRScysEIV, X and XI.
A heterogeneous lambda lysate, which contained recombinant cysE allele-carrying λRS45 derivatives in addition to λRS45 phages, was produced in vivo by homologous recombination by means of preparing a plate lysate on a pRScysE-carrying recA^+ strain (e.g. YMC9, ATCC 3397) using the λRS45 phage (Simons et al., 1987, Gene 53: 85-96).
The cysE strain JM15, which was infected with the heterogeneous lambda lysate and subsequently plated on kanamycin-containing (25 mg/L) LB plates, was used for selecting for the recombinant RS45 derivatives. The lysogenic, kanamycin-resistant clones which were obtained were then tested for their ability to grow on minimal medium plates without cysteine. A clone which was in each case cysteine-prototrophic was selected and used for preparing a homogeneous cysE λ lysate (by means of UV induction, Simons et al., 1987, Gene 53: 85-96).
The JM15 stain was infected with these homogeneous cysE λ lysates which were obtained in each case. The resulting JM15attλ::cysE strains were cultured as described in Example 6. Instead of tetracycline, the respective media in each case contained 25 mg of kanamycin per L as the selection agent.

The target in test [2] is serine acetyltransferase. The test can be described thus: Serine acetyltransferase enzyme activity test with and without L-cysteine (inhibitor constant Ki, specific activity). The note with it: for Ki: inhibitor L-cysteine. Format: biochemical, E. coli. The essentials: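 Spectrophotometric test with L-serine and acetyl-CoA, reaction started by enzyme, following absorbance decrease at 232 nm from thioester cleavage. Activity measured with and without varying L-cysteine to derive Ki; enzyme from S30 extracts (30,000 g, 4° C, 20 min) of E. coli strains.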

B1: cysEXI: double mutant Thr167->Ala167, Gly245->Ser245 (protein, UniProt P0A9D4 1-273, looked up, variant T167A G245S)
Serine acetyltransferase: MSCEELEIVWNNIKAEARTLADCEPMLASFYHATLLKHENLGSALSYMLANKLSSPIMPAIAIREVVEEAYAADPEMIASAACDIQAVRTRDPAVDKYSTPLLYLKGFHALQAYRIGHWLWNQGRRALAIFLQNQVSVTFQVDIHPAAKIGRGIMLDHATGIVVGEAAVIENDVSILQSVTLGGTGKSGGDRHPKIREGVMIGAGAKILGNIEVGRGAKIGAGSVVLQPVPPHTTAAGVPARIVSKPDSDKPSMDMDQHFNGINHTFEYGDGI
As to B1, in test [1], the yields of cysteine worked out at 2.1 g/L. The inhibitory constant (Ki) – broadly, a dissociation constant, usually derived from enzyme kinetics or from competition with a known ligand – stood at 700 µM in test [2] (Table 1a, 1 mM L-serine, 0.1 mM acetyl-CoA) and 700 µM in test [2] (Table 2, alleles from chemical mutagenesis). Further, the spec. act. in test [2] (Table 1a, serine acetyltransferase activity) was found to be 0.117 µmol/min/mg.
